Patent US20200038523A1 (TECHNISCHE UNIVERSIT T M NCHEN, published 2020)

Target: T1, rhPSMA, extracellular part of human prostate-specific membrane antigen (residues 44-750) with native … (human, UniProt Q04609 44-750)
T1 construct: range 44-750; Secreted from Schneider S2 insect cells, glycosylated; also called wild-type rhPSMA; rhGCPII
Assay: ELISA: rhPSMA coated on MaxiSorp plate, Anticalin dilution series, detection via Strep-tag II with StrepTactin/AP, absorbance at 405 nm
Description: Binding activities of Anticalins selected from the original nave library (A) or resulting from subsequent affinity maturation of the A3 variant (B) were compared in an ELISA. A 96-well MaxiSorp plate was coated with rhPSMA (or ovalbumin as a negative control, not shown) and purified Anticalin variants were applied in dilution series. Anticalin binding was detected using StrepTactin/AP conjugate, followed by chromogenic reaction. Absorption was plotted against the Anticalin concentration and data were analyzed by curve fitting. Binding curves for the best performing clones A3 and A3A5 are shown as solid lines. (CE) SPR sensograms measured for Anticalins A3, A3A5 and A3A5.1 on a BIAcore 2000 instrument. […]
50 μL of rhPSMA (5 μg/mL in TBS) was directly adsorbed onto the surface of a MaxiSorp 96-well plate overnight at 4° C. […] The plates were washed three times and bound Anticalins were detected with StrepTactin-AP as described further above. The data were analyzed using Prism 5 software (GraphPad) and absorption values (A) were fitted according to the formula ΔA=Aₘₐₓ[Lₜₒₜ]/(KD+[Lₜₒₜ]) with the concentration of the applied lipocalin variant [Lₜₒₜ] and the dissociation constant KD.
Specific binding activities of selected Anticalins toward rhPSMA as well as apparent affinity constants were initially determined by ELISA in 96-well Maxisorp plates coated with the recombinant wild-type PSMA protein. […]

T1 sequence (Q04609 44-750 limits assumed): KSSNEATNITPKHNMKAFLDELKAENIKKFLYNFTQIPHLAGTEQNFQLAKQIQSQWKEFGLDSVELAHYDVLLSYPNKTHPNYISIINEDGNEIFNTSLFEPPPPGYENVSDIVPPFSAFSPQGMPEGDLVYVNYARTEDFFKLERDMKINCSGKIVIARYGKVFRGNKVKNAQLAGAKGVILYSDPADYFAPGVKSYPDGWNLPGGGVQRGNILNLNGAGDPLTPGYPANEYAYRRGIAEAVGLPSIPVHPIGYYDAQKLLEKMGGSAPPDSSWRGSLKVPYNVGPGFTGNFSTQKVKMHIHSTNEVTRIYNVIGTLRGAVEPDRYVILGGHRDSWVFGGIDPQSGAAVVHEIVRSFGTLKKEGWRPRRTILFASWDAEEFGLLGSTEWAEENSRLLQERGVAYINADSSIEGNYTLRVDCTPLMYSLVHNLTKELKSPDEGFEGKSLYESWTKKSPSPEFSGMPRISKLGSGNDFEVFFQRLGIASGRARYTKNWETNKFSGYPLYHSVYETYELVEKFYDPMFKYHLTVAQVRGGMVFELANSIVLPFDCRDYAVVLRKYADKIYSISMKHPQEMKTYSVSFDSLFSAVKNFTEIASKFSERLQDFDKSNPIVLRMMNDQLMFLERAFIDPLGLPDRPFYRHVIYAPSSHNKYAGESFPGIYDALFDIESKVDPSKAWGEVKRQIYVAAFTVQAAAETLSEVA

| EC50 (read off the curve) | Binder |
| --- | --- |
| ~6 nM | Anticalin candidate H5 (designed binder, not shown: C-terminal Strep-tag II) QDSTSDLIPAPPLSKVPLQQNFQDNQFHGKWYVVGTAGNWPLREDKDPHKMSATIYELKEDKSYNVTNVQFSSKKCLYFIGTFVPGSQPGEFTLGPIKSAPGQTSGLVRVVSTNYNQHAMVFFKQVIQNREAFIITLYGRTKELTSELKENFIRFSKSLGLPENHIVFPVPIDQCIDG |
| ~10 nM | Anticalin candidate A2 (designed binder, not shown: C-terminal Strep-tag II) QDSTSDLIPAPPLSKVPLQQNFQDNQFHGKWYVVGRAGNKPLREDKDPLKMWATIYELKEDKSYNVTIVWFDFKKCWYRISTFVPGSQPGEFTLGRIKSAPGVTSGLVRVVSTNYNQHAMVFFKYVFQNREWFHITLYGRTKELTSELKENFIRFSKSLGLPENHIVFPVPIDQCIDG |
